In patent US12415992B2, “Dioxygenase mutants and use thereof in synthesizing (2S,3R)-3-hydroxypipecolic acid” (Jiangnan University, priority 2023, dated 2025):
Numbering of substitutions follows the chain as printed. Numbers in names are those of the source.

What was measured:
[1] = molecular target: T1, Streptomyces sp. strain TH1 L-proline-3-hydroxylase (cis-P3H), wild type (WT), SEQ ID NO. 1 (Streptomyces sp., UniProt P96010); assay: Kinetic parameters of wild-type L-proline-3-hydroxylase (Michaelis-Menten fit); format: biochemical; details: WT pure enzyme; L-pipecolic acid 0.30 to 25 mM, 2-OG 0.30 to 40 mM; pH 6.5, 17° C.; three measurements
T1 sequence (P96010 1-290): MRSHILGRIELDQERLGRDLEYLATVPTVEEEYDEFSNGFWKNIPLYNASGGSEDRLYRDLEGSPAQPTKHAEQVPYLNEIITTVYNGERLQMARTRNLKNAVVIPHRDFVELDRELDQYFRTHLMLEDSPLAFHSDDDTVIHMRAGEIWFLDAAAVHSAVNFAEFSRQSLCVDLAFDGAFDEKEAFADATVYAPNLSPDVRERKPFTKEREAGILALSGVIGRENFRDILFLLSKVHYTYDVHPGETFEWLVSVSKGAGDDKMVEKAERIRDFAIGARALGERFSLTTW
Description: […]
(§1) The reaction was terminated by boiling, and the sample after the termination of reaction was analyzed by high-performance liquid chromatography (HPLC). […]
(§2) Kinetic parameters (Km and Vmax) were determined using a reaction mixture with a final volume of 250 μL. […]

[2] = molecular target: T2, Streptomyces sp. strain TH1 L-proline-3-hydroxylase (cis-P3H, SEQ ID NO. 1) mutant R97M (Streptomyces sp., UniProt P96010, R97M); assay: Kinetic parameters of L-proline-3-hydroxylase mutant R97M (Michaelis-Menten fit); format: biochemical
T2 sequence (P96010 1-290 R97M): T1 sequence (P96010 1-290) with R97M
Description: […]
as §1, §2

[3] = substrate: O=C(O)CCC(=O)C(=O)O; assay: purified protein, by the assay type; details: L-pipecolic acid 0.30 to 25 mM, 2-OG 0.30 to 40 mM, pH 6.5, 17° C., three measurements
[4] = substrate: O=C(O)[C@@H]1CCCCN1; assay: Kinetic parameters of L-proline-3-hydroxylase mutant R97M (Michaelis-Menten fit); format: biochemical, Streptomyces sp. strain TH1; details: other: R97M pure enzyme, L-pipecolic acid 0.30 to 25 mM, 2-OG 0.30 to 40 mM, pH 6.5, 17° C., three measurements
Source text: (§3) The present disclosure further provides a method for constructing the L-proline-3-hydroxylase mutant above, the method includes the following steps: • (1) according to sequence information of the L-proline-3-hydroxylase from Streptomyces sp. strain TH1 disclosed in the NCBI database, performing codon optimization based on codon preference rules of Escherichia coli to obtain an optimized gene of L-proline-3-hydroxylase; connecting the optimized gene of L-proline-3-hydroxylase into an expression vector pET28a to construct an L-proline-3-hydroxylase expression vector; • (2) using genes (involved in site-directed saturation mutagenesis) synthesized by GENCEFE Biotech to prepare an expression vector containing the L-proline-3-hydroxylase mutant; • (3) transforming the above vectors into BL21 engineering bacteria by chemical transformation to express each enzyme protein; culturing the strain in a test tube at 37° C. shaker overnight, transferring the same to an LB liquid culture medium containing 50 mg·L^−1 kanamycin at a 2% inoculation rate, culturing at 37° C. for 2-2.5 hours, and then adding IPTG with a concentration of 0.10 mM to adjust a temperature to 17° C. and culturing for 16 hours; • (4) centrifuging at 8000 r·min^−1 for 5 minutes and collecting bacterial pellets, disrupting cells through an ultrasonic disruption method, centrifuging in a refrigerated centrifuge at 12000 r·min^−1 for 30 minutes to collect supernatant, directly using the supernatant for crude enzyme reaction to explore changes in molar yield under crude enzyme conditions; or purifying the supernatant with a nickel column, and enzymatic properties such as enzyme activity and kinetic parameters of the pure L-proline-3-hydroxylase can be determined. Specifically, the enzyme activity is detected using an Fmoc-Cl pre-column derivatization method, and analyzed by high-performance liquid chromatography (HPLC). The kinetic parameters (Km and Vmax) are measured in a standard enzyme activity assay system, with three separate measurements. Data are fitted to a Michaelis-Menten model using GraphPad Prism, and a protein concentration is kept at 0.50 mg·mL-1 during the measurements.
(§4) Specifically, the reaction under crude enzyme conditions was performed for 12 hours, the reaction under pure enzyme conditions was performed for 15 minutes, and a final protein concentration for the reaction under pure enzyme conditions was 0.5 mg·mL^−1.
as §1, §2

[5] = substrate: O=C(O)[C@@H]1CCCCN1; assay: Kinetic parameters of wild-type L-proline-3-hydroxylase (Michaelis-Menten fit); format: biochemical, Streptomyces sp. strain TH1; details: other: WT pure enzyme, L-pipecolic acid 0.30 to 25 mM, 2-OG 0.30 to 40 mM, pH 6.5, 17° C., three measurements
Source text: as §3, §4, §1, §2

Molecule: O=C(O)[C@@H]1CCCCN1 [L-Pip, L-pipecolic acid]
- kcat/Km [1]: 19 M⁻¹ s⁻¹
- kcat/Km ([2]; R97M pure enzyme, L-pipecolic acid 0.30 to 25 mM, 2-OG 0.30 to 40 mM, pH 6.5, 17° C., three measurements): 34.8 M⁻¹ s⁻¹
- catalytic efficiency kcat/Km of R97M relative to WT ([2]; ratio R97M / WT): 1.83 times

B1: Streptomyces sp. strain TH1 L-proline-3-hydroxylase (cis-P3H, SEQ ID NO. 1) mutant R97M (Streptomyces sp.; R97M) (protein)
chain: T1 sequence (P96010 1-290) with R97M
- Km ([3]; other: R97M pure enzyme): 1.46 ± 0.01 mM
- Vmax ([3]; other: R97M pure enzyme): 139 µM/min
- kcat ([3]; other: R97M pure enzyme): 0.151 s⁻¹
- kcat/Km ([3]; other: R97M pure enzyme): 104 M⁻¹ s⁻¹
- Km [4]: 6.83 ± 0.32 mM
- Vmax [4]: 212 µM/min
- kcat [4]: 0.23 ± 0.00367 s⁻¹
- kcat/Km [4]: 34.8 ± 1 M⁻¹ s⁻¹

B2: Streptomyces sp. strain TH1 L-proline-3-hydroxylase (cis-P3H), wild type (WT), SEQ ID NO. 1 (Streptomyces sp.) (protein)
chain: T1 sequence (P96010 1-290)
- Km ([3]; other: WT pure enzyme): 0.76 ± 0.02 mM
- Vmax ([3]; other: WT pure enzyme): 101 µM/min
- kcat ([3]; other: WT pure enzyme): 0.102 s⁻¹
- kcat/Km ([3]; other: WT pure enzyme): 134 M⁻¹ s⁻¹
- Km [5]: 10.27 ± 0.40 mM
- Vmax [5]: 201 µM/min
- kcat [5]: 0.2038 ± 0.002 s⁻¹
- kcat/Km [5]: 19 ± 0.5 M⁻¹ s⁻¹
